# Assay results published in IntAct's records for PubMed 22916205.
# B1: "Na(+)/H(+) exchange regulatory cofactor-like protein nrfl-1" (Caenorhabditis elegans), G5EDM4-1 (parent)
# chain: MVHIPSDVTPPRLCVVEKLNGENEYGYNLHAEKGRGQFVGTVDPDSPAERGGLITGDRIFAVNGHSIIGENHKKVVERIKANPNRCEMLVISEEGAKWYNENNVQITLDLPNIERVSPMSKETPVFVPPPPPPTDAMPYLPRLAELNKGTPDQEFGFNLHAERGRGHFIGTVDAGGIGEKAGLEAGQRIVGVNGQLIYPTTGHKEVVALIKKDTMKTTLLVASEDVDKYHKDHNIAYSWDNVERVDTRPVINVETHHHHEEVSVPKSNGYDVPPLNPHSIQVNEEREISKMTTTTRTETITNSNSAYQYKESSTAYDAYATPPVDSNDLMDEVFGRVNLPGVTMSSHTEVLPPTDDISSVSSLSSHRESAVDVPVSHQYVPSYATESHQKHEQHSQTHHHHHQHQQPSPLSNGSSHGYAASSTSGYDDDDIYHLSAREARERLRMKNRKHHLHEMSLNEKYQLVSNM
# partner: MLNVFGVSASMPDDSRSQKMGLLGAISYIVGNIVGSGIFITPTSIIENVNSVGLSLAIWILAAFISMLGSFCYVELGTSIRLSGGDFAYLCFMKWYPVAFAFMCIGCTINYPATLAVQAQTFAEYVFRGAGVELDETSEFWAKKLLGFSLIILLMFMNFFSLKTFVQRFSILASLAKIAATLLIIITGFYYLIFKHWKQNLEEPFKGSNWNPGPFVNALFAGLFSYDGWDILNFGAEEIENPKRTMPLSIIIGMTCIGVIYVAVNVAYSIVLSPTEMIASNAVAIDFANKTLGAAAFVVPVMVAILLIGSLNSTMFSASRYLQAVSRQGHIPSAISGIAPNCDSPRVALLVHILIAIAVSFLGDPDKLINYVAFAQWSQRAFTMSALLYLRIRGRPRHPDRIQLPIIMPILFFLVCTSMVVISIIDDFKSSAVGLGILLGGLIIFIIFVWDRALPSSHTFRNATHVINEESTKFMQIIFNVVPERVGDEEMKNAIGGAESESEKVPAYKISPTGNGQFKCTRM
# Variants of: B1
# Conditions: with aat6_caeel aat-6, Q22397
row,Variant,effect of a mutation on the interaction
1,G26A;Y27A;E154A;F155A,disrupting interaction strength
2,G26A;Y27A,with no effect
3,E154A;F155A,decreasing interaction strength
